This is an account of results in paper PMC5610305.

In test [1] the target is Plasmodium falciparum actin I, pyrene-labeled (Plasmodium falciparum) (UniProt Q8I4X0). The test is described as follows: dilution-induced depolymerization (pyrene fluorescence); 30% pyrene-labeled actins, 5 µM polymerized overnight, diluted 100-fold to 50 nM in F-buffer; single-phase exponential decay fit.
The target is the same in test [2]. Nature of the test: other fluorescence titration; steady-state critical concentration in classical non-polymerizing buffer (G-buffer): pyrene-labeled PfActI, 16 h at 20 °C; two-line fit of pyrene fluorescence.
For test [3] the target is unchanged. Nature of the test: other fluorescence titration; steady-state critical concentration in F-buffer: pyrene-labeled actin polymerized, diluted to a series of concentrations up to 5 µM, 16 h at 20 °C (methods: overnight at 22 °C); two-line fit of pyrene fluorescence.
Test [4] has as its target Plasmodium falciparum actin I (unlabeled) (Plasmodium falciparum) (UniProt Q8I4X0). The test is described as follows: native gel or EMSA; native PAGE of 25 µM polymerized PfActI with and without ultracentrifugation at 434,500 g; running buffer with sample-matched ATP:ADP ratio and 0.1 mM MgCl2; SYPRO Orange, densitometry. In general terms: A gel shift assay detects complexes by their altered migration in electrophoresis.

Test [5] has the same target. The test is described as follows: co-sedimentation; pelleting assay: unlabeled actin polymerized overnight at 22 °C in F-buffer (50 mM KCl, 4 mM MgCl2, 1 mM EGTA), ultracentrifugation at 434,500 g or 100,000 g, 20 °C, 1 h; supernatant and pellet by SDS-PAGE densitometry; also at different actin concentrations.

Consider “Plasmodium falciparum actin I, pyrene-labeled (from UniProt Q8I4X0 1-376) (natural protein)”, for which, in test [1], the apparent rate constant of depolymerization (single-phase decay) came out at 0.0093 s⁻¹, the depolymerization rate constant adjusted by filament concentration (100 nm filament length assumed) was 0.4 s⁻¹ and the half-time of depolymerization worked out at 74 s. In test [2], this substance registered a Cc (critical concentration, G-buffer, the experiment shown) of 0.04 µM and a Cc (critical concentration, steady state, G-buffer) of 0.06 µM. In addition, in test [3], the Cc (critical concentration, F-buffer, the experiment shown) was found to be 0.13 µM and the Cc (critical concentration, steady state, F-buffer) was 0.11 µM.
The stoichiometry N is the number of molecules, sites or subunits per partner or assembly. As to “Plasmodium falciparum actin I (unlabeled) (from UniProt Q8I4X0 1-376) (natural protein)”, in test [4], the % of total band intensity as dimers came to 56.2%, the % of total band intensity as polymers was 43.4%, the monomer concentration left at steady state (from the monomer band) was 0.11 µM and the stoichiometry N worked out at 2. In test [5], the % of total protein in the pellet (100,000 g) was determined as 60% and the % of total protein in the pellet (434,500 g) is 70%.
